For test [1], the target named is paclitaxel-stabilized microtubules (UniProt P02550).
Test [2] shares this target. Briefly: co-sedimentation.
For test [3] the target is unchanged. Briefly: co-sedimentation. This is another data set of the same source.
For test [4] the target is unchanged. Briefly: co-sedimentation. The source holds these as a separate data set.

Where two headings read alike, the source gives them in different places. Some results are limits rather than exact numbers.

UniProt P02550, sequence (P02550 whole entry, chain 1 of 2): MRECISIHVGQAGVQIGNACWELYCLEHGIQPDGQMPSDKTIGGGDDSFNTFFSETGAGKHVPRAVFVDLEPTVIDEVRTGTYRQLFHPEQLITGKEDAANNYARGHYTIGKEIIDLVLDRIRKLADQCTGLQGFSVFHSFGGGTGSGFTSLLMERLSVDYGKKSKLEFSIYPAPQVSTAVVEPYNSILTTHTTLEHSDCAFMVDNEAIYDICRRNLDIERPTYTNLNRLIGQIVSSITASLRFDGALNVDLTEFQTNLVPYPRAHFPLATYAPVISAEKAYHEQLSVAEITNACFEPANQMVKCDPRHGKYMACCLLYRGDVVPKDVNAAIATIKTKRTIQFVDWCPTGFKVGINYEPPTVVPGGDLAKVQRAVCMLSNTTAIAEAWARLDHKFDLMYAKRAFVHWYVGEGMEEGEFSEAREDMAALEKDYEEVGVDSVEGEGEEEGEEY
UniProt P02550, sequence (P02554 whole entry, chain 2 of 2, further chain): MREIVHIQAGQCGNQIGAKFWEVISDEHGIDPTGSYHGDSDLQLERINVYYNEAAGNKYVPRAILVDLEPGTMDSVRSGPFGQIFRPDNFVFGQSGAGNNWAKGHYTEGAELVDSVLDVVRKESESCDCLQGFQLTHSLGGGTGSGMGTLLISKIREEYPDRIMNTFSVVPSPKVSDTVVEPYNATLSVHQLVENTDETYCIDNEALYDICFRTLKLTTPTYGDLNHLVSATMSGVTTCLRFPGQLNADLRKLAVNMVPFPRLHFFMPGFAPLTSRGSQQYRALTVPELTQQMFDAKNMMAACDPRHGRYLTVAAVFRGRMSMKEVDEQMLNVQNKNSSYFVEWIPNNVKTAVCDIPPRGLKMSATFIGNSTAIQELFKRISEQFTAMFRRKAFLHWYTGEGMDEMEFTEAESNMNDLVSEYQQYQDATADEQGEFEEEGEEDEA

With “HFG380 L3339C I3517C double-Cys mutant, untreated, P34036 1388-4730”, the Km(MT) of MT-activated steady-state ATPase, untreated dynein, 1 mM ATP, 25 °C in test [1] turned out to be 26.6 µM. The Kd (usually the constant that tells how readily two partners part at equilibrium) in test [2] was > 10 µM.
For “HFG380 L3339C Q3510C double-Cys mutant, untreated, P34036 1388-4730”, the Km(MT) of MT-activated steady-state ATPase, untreated dynein, 1 mM ATP, 25 °C in test [1] amounted to 40.5 µM. In addition, the Kd in test [2] was > 10 µM; in test [3], 0.61 µM.
For the substance “HFG380 Q3340C I3513C double-Cys mutant, untreated, P34036 1388-4730”, the Km(MT) of MT-activated steady-state ATPase, untreated dynein, 1 mM ATP, 25 °C in test [1] turned out to be 14.5 µM. Besides, the results for the Kd in test [2] and in test [3] were > 10 µM and 0.65 µM, respectively.
Turning to “HFG380 L3339C Q3510C double-Cys mutant, oxidized (stalk coiled coil locked in the +β registry), P34036 1388-4730”, the Kd in test [2] and in test [4] was > 10 µM each time.
Consider “HFG380 L3339C I3517C double-Cys mutant, oxidized (stalk coiled coil locked in the −β registry), P34036 1388-4730”, for which the Kd in test [2] and in test [4] was > 10 µM in each case.

For the origin of these results see PMC2757048.
